# Square brackets hold non-standard residues; d marks the D form. Ends that are not written are not given here.
# Target: T1, mouse ADAMTS7 (Mus musculus, UniProt Q68SA9, E373Q)
# T1 construct: Full-length mouse Adamts7 1-1857 (Uniprot Q68SA9, WT or E373Q catalytic mutant); expressed in transfected cells; host or cells: Human Coronary Artery Smooth Muscle Cells (HCA-SMC, Lonza), adenovirus 50 MOI
# T1 sequence (Q68SA9 221-1657 E373Q): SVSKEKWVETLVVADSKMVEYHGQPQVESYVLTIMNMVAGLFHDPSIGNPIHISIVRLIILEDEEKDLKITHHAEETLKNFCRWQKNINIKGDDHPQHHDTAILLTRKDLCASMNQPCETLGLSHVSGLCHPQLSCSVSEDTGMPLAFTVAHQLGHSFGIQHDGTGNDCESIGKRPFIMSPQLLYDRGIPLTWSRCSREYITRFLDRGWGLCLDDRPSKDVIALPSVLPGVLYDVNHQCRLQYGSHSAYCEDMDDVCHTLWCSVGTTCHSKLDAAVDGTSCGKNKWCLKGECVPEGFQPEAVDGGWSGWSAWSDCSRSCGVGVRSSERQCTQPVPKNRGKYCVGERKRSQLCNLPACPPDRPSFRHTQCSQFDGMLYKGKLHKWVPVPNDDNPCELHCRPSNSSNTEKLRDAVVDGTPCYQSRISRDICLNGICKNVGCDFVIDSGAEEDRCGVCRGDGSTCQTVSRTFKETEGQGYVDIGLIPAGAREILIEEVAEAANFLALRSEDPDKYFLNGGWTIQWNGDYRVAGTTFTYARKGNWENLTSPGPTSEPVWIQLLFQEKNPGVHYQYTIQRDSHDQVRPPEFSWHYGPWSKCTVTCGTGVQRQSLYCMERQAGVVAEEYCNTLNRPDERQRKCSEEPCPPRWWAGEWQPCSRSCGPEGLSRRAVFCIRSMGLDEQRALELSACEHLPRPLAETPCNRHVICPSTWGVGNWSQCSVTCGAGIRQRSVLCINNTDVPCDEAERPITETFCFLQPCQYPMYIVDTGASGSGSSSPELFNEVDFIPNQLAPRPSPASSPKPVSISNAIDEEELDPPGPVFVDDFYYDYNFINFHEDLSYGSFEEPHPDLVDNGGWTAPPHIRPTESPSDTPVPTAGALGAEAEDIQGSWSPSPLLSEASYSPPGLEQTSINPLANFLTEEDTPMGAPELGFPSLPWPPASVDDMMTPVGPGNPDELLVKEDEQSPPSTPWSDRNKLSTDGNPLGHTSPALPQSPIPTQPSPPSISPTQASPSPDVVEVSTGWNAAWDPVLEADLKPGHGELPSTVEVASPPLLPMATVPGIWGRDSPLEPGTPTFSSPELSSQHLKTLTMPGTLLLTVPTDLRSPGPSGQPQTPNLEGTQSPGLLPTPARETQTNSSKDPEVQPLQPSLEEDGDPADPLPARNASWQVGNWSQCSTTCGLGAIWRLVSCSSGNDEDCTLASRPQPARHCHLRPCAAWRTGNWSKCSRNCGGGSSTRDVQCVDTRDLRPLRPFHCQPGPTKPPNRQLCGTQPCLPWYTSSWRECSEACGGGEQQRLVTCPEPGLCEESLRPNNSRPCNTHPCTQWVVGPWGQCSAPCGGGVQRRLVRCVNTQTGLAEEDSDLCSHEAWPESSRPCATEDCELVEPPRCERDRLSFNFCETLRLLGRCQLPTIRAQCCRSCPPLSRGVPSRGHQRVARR
# Assay: TMT10 TAILS N-terminomics, SMC2 experiment (process replicates, trypsin/AspN digest)
# Type: cell-based
# Summary of the method: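 Full-length mouse ADAMTS7 (WT or E373Q mutant, C-terminal 3xFLAG) or luciferase was transduced via adenovirus, 50 MOI, into HCA-SMC (SMC1, SMC2) or HUVEC. SMC1: pooled media, technical triplicates 400 ug; SMC2: process triplicates 300 ug; HUVEC: process triplicates 200 ug, bFGF2 10 ng/ml.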
# [1] = SMC2_TAILS HC, log fold change, mEQ over Luc
# [2] = log fold change, ADAMTS7 EQ over luciferase
logFC.mEQ.over.Luc [1],logFC.mEQ.over.Luc [2],Substance,other results
4.60,,ADNP2_375 (SQPVGPVNK; listed as Homo sapiens),
0.11,,APLP2_452 (LVETHLAR; listed as Homo sapiens),
−0.06,,BMPER_43 (LTGSVAKCENEG; listed as Homo sapiens),
−0.01,,CALU_176 (FTAFLHPEEY; listed as Homo sapiens),
0.09,,CAP1_300 (FSAPKPQTSPSPKR; listed as Homo sapiens),
−0.11,,CCL2_28 (INAPVTCCYNFTNR; listed as Homo sapiens),
−0.62,,CEP192_728 (DKSTAGR; listed as Homo sapiens),
−0.02,,DIS3L_75 (FPELKGIIFMQTACQAVQHQR; listed as Homo sapiens),
−0.12,,EEF1G_23 (QYSGAQVR; listed as Homo sapiens),
0.49,,EIF4B_426 (QTGTSTTSSR; listed as Homo sapiens),
0.20,,EMSY_943 (QTVVQVLAVK; listed as Homo sapiens),
−0.15,,FBLN2_665 (FSQVASNTIPLPLPQPNTCK; listed as Homo sapiens),
−0.09,,FN1_35 ([code q]MVQPQSPVAVSQSKPGCY; not fully specified (residue 2); listed as Homo sapiens),
−0.34,,FN1_1780 (LQGLRPGSEYTVSVVALH; listed as Homo sapiens),
0.07,,FOXG1_235 (LNKCFVKVPRHY; listed as Homo sapiens),
0.29,,HEG1_224 (FQTKSGTAS; listed as Homo sapiens),
−0.14,,LASP1_182 (SYGGYKEPAAPVSIQR; listed as Homo sapiens),
−0.34,,LOX_60 (LGSQYQPQR; listed as Homo sapiens),
,−0.35,SDC4_106 (LEENEVIPKR; listed as Homo sapiens),
,0.36,SPOCK1_126 (HWVGPSNLVK; listed as Homo sapiens),
,−0.13,SRGN_51 (EEKGPMFELLPGESNKIPR; listed as Homo sapiens),
,−0.11,STC2_239 (HGEAGHHLPEPSSR; listed as Homo sapiens),
,−0.26,STC2_244 (HHLPEPSSR; listed as Homo sapiens),
,0.10,TGFBI_43 ([code q]HGPNVCAVQKVIGTNR; not fully specified; listed as Homo sapiens),
,−0.04,THBS1_972 (QNDPNWVVR; listed as Homo sapiens),
,−0.17,TLN1_1501 (HTSALCNSCR; listed as Homo sapiens),

# The remaining lines, values behind:
Substance,logFC.mEQ.over.Luc [1],logFC.mEQ.over.Luc [2],other results
ACTG1_105 (LTEAPLNPKANR; listed as Homo sapiens),−0.31,,
ACTN4_5 (HAANQSYQYGPSSAGNGAGGGGSMG; listed as Homo sapiens),0.00,,
ADAM9_74 (GKEHIIHLER; listed as Homo sapiens),−0.18,,
ADAM10_86 (FKVETSNKVL; listed as Homo sapiens),−0.29,,
AMER2_654 (LAGTTIRATACH; listed as Homo sapiens),0.05,,
APOA1_86 (EQLGPVTQEFW; listed as Homo sapiens),−0.07,,
CTSB_109 (WAFGAVEAIS; listed as Homo sapiens),−0.08,,
DBN1_434 (APVEPATA; listed as Homo sapiens),0.03,,
ECM1_38 (FQEVGYAAPPSPPLSR; listed as Homo sapiens),−0.02,,
ECM1_44 (AAPPSPPLSR; listed as Homo sapiens),−0.28,,
ECM1_108 (QEAVPLQK; listed as Homo sapiens),−0.22,,
FLNA_689 (VNKPAEFTV; listed as Homo sapiens),−1.45,,
FLNC_2649 (FVGQKNSFTV; listed as Homo sapiens),−0.06,,
FN1_99 (DKYTGNTYR; listed as Homo sapiens),−0.08,,
FN1_607 (SSSGPVEVFIT; listed as Homo sapiens),0.45,,
FN1_1693 (LQPTVEYVVSVYAQNPSG; listed as Homo sapiens),−0.07,,
FN1_1805 (LIGTQSTAIPAPT; listed as Homo sapiens),0.71,,
FN1_2113 (FVTHPGY; listed as Homo sapiens),−0.19,,
FSTL_1290 (LQKHQETA; listed as Homo sapiens),−0.28,,
HEG1_51 (GLELQLER; listed as Homo sapiens),0.25,,
KCND1_436 (RLAKSGTTNAFLQYKQNGGLE; listed as Homo sapiens),−0.14,,
KRT28_2 (SLQFSNGSR; listed as Homo sapiens),−0.34,,

Substance,logFC.mEQ.over.Luc [1],logFC.mEQ.over.Luc [2],other results
LOXL1_157 (SVSASAFASTYR; listed as Homo sapiens),−0.19,,
LOX_125 (FQAGYSTSR; listed as Homo sapiens),0.11,,
QSOX1_558 (VAAAPELAMGALELESR; listed as Homo sapiens),,−0.19,
SERPINH1_27 (AAAPGTAEKLSPKAATLAER; listed as Homo sapiens),,−0.69,
SMOC1_35 (LISDRDPQCNLHCSR; listed as Homo sapiens),,0.14,
SRGN_50 (LEEKGPMFELLPGESNKIPR; listed as Homo sapiens),,−0.07,
SRGN_60 (LPGESNKIPR; listed as Homo sapiens),,0.32,
SRGN_62 (GESNKIPR; listed as Homo sapiens),,−0.45,
STC1_37 (QNSAEVVR; listed as Homo sapiens),,−0.22,
TGFBI_24 (GPAKSPYQLVLQHSR; listed as Homo sapiens),,0.05,
TGFBI_50 (AVQKVIGTNR; listed as Homo sapiens),,0.33,
TGFBI_208 (GIVTVNCAR; listed as Homo sapiens),,0.30,
TGFBI_276 (TLLAPT[code n]EAFEKIPSETLNR; not fully specified; listed as Homo sapiens),,0.09,
TGFBI_497 (VLTPPMGTVMDVLKGDNR; not fully specified (residue 6); listed as Homo sapiens),,0.14,
TGFBI_524 (SAGLTETLNR; listed as Homo sapiens),,0.18,
TGFBI_534 (EGVYTVFAPTNEAFR; listed as Homo sapiens),,0.09,
TG_1017 (GASALLR; listed as Homo sapiens),,1.03,
TMEM132A_52 (LLDAPEHFR; listed as Homo sapiens),,−0.30,
VASN_138 (HIQPGAFDTLDR; listed as Homo sapiens),,0.19,
VASP_229 (AIAGAKLR; listed as Homo sapiens),,−0.08,
VCAN_3367 (FKNSSSAK; listed as Homo sapiens),,,"logFC.mEQ.over.Luc (SMC2_TAILS HC, log fold change of N-terminal peptide, Ad-mADAMTS7 EQ over Luc): −0.72"
